# Experiments:
# [1] = tested on: T1, Nc1nc2c(ncn2[C@@H]2O[C@H](COP(=O)(O)OP(=O)(O)OP(=O)(O)O)[C@@H](O)[C@H]2O)c(=O)[nH]1; experiment: multiple turnover radioactive charcoal GTPase assay, Michaelis-Menten fit; assay type: biochemical, C. tepidum; settings: 100 nM protein, 50 mM NaCl, 20 mM Tris/HCl, 10 mM MgCl2, 1 mM DTT, 0.5 mg/ml BSA, pH 7.5, 25°C, labelled compound (gamma-32P)
# T1 construct: Roc-COR-kinase fragment, AA 1334-2147, N-terminal His-tag, expressed in Sf9 cells, Ni-NTA purified
# [2] = tested on: T1, Nc1nc2c(ncn2[C@@H]2O[C@H](COP(=O)(O)OP(=O)(O)OP(=O)(O)O)[C@@H](O)[C@H]2O)c(=O)[nH]1; experiment: as above; assay type: biochemical, Chlorobaculum tepidum; settings: 100 nM protein, 50 mM NaCl, 20 mM Tris/HCl, 10 mM MgCl2, 1 mM DTT, 0.5 mg/ml BSA, pH 7.5, 25°C, labelled compound (gamma-32P)
# LRRK2 Roc-COR-kinase fragment (Homo sapiens; R1441C), sequence (chain, as listed by the source R1441C): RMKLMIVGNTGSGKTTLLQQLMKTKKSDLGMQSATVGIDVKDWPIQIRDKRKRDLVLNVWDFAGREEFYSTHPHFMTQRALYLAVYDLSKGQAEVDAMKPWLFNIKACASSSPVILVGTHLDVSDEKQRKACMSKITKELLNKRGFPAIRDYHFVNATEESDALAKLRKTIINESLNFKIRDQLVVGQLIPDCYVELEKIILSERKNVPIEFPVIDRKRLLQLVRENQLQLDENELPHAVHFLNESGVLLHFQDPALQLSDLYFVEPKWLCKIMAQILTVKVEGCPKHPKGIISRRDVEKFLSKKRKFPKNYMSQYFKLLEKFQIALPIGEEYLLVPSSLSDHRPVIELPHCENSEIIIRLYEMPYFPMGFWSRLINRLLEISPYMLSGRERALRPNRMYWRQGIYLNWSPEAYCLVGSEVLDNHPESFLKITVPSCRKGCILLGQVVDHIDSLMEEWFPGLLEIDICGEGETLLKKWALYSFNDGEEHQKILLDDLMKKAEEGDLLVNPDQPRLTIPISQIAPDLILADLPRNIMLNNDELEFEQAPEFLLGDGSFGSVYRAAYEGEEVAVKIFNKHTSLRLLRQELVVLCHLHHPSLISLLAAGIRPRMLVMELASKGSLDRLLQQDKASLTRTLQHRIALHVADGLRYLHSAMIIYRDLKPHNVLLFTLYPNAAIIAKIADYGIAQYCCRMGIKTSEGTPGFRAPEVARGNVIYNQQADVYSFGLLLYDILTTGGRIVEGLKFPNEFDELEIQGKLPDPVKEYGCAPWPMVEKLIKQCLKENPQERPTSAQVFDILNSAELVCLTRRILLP
# LRRK2 Roc-COR-kinase fragment (Homo sapiens), sequence (chain, as listed by the source): as the sequence (chain, as listed by the source R1441C) above, with C108R counted along it
Substance,Km [1] [µM],kcat [1] [s⁻¹],Km [2] [µM],kcat [2] [s⁻¹]
LRRK2 Roc-COR-kinase fragment (Homo sapiens),343,0.013,,
LRRK2 Roc-COR-kinase fragment (Homo sapiens; R1441C),,,541,0.00617

# Reference: PMC4721548, “Conformational heterogeneity of the Roc domains in C. tepidum Roc–COR and implications for human LRRK2 Parkinson mutations” (Bioscience Reports, 2015)
